Results as given in article PMC7240051.

Target: BnaA10.ABF2-cYFP (Brassica napus)

Substance | dual-luciferase assay in tobacco leaves: activity of pBnaC9.RAB18-LUC with BnaA6.RGA expressed together with BnaA10.ABF2, against the reporter only (BnaA10.ABF2 alone: 3.7 times) [times] | dual-luciferase assay in tobacco leaves: activity of pBnaC9.RAB18-LUC with BnaC7.RGA expressed together with BnaA10.ABF2, against the reporter only (BnaA10.ABF2 alone: 3.7 times) [times]
BnaA6.RGA-nYFP (full length) (natural protein) | 6.5 | 
BnaC7.RGA-nYFP (full length) (natural protein) |  | 11.8
